Series [1] deals with Klebsiella pneumoniae adenosine monophosphate nucleosidase (Klebsiella pneumoniae). Briefly: cryo-EM structure; purified KpAmn vitrified on a C-flat grid (Vitrobot, 4°C, >90% humidity), Titan Krios 300 kV; apo; D3 symmetry confirmed by ab initio models and enforced in refinement.
Substrate in the series “purified protein”: Nc1ncnc2c1ncn2[C@@H]1O[C@H](COP(=O)(O)O)[C@@H](O)[C@H]1O
As to the kind of experiment: purified protein. The format is biochemical, Klebsiella pneumoniae. Particulars: 25 °C, 20 mM HEPES pH 7.5, 100 mM NaCl, 1 mM MnCl2, no ATP activator listed.

By stoichiometry N is commonly meant the number of molecules, sites or subunits per partner or assembly. Molecule “Klebsiella pneumoniae adenosine monophosphate nucleosidase (enzyme)” displayed a stoichiometry N in series [1] of 6.

B1: KpAmn (K. pneumoniae adenosine monophosphate nucleosidase) (Klebsiella pneumoniae) (protein)
chain: MNIKAASLTPEQALAELEARYEASVTALRKAIGDYIDHNTLPDTEARAEGLFVYPQLSVSWDGADHKALKTRAWGRFTHAGCYTTTITNPKLFRNYLLEQLTLLYQDYGAHISVELSQHEIPYPYVIDGSTLTLDRSMSAGLTRYFPTTELSQIGDETADGLFHPTEFYPLSHFDARRVDFSLARLRHYTGTPAEHFQPYVLFTNYTRYVDEFVSWGCSQILDPDSPYIALSCAGGIWITAETEAPEQAISDLAWKKHQMPAWHLITHDGKGITLINIGVGPANAKTICDHLAVLRPDVWLMIGHCGGLRESQAIGDYVLAHAYLRDDHVLDAVLPPDIPIPSIAEVQRALYDATKQVSGMPGEEVKQRLRTGTVVTTDDRNWELRYSASALRFNLSRAVAIDMESATIAAQGYRFRVPYGTLLCVSDKPLHGEIKLPGQANRFYEGAISEHLQIGIRAIDLLRAEGDHMHSRKLRTFNEPPFR
notes: expressed in E. coli BL21(DE3) R3 Rosetta; homohexamer, D3 symmetry; active site from two chains
For orientation: Km means the substrate concentration at which the rate is half of its maximum. In the case of B1, the Km in “purified protein” was 390 µM.

The values above are taken from PMC9584410, “Structure of Klebsiella pneumoniae adenosine monophosphate nucleosidase” (PLoS ONE, 2022).
